One block for each binder: values may come before it.
Assays:
[1] = target: T1, recombinant 302–359 fragment of human mesothelin (hMSLN) (human, UniProt Q13421 302-359, biotin on the AviTag); experiment: SPR
T1 chain: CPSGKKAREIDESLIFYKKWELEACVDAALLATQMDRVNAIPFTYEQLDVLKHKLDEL

[2] = target: T2, recombinant 302–359 fragment of human mesothelin (hMSLN) (Homo sapiens, UniProt Q13421, biotin on the AviTag); experiment: SPR; Biacore T200; hMSLN 302–359 amine-coupled at about 700 RU on CM5; analytes 12.5 to 200 nM in HBS-EP, single cycle kinetics, 30 μL/min; Langmuir model; conditions: both partners purified
T2 construct: Amine-coupled to a CM5 chip in SPR, captured on NeutrAvidin in ELISA; source: E. coli Origami B with pBirA, purified (Ni-NTA, Superdex 75); not shown: AviTag, C-terminal, kept

[3] = target: T1, recombinant 302–359 fragment of human …; experiment: SPR
[4] = target: T1, recombinant 302–359 fragment of human …; experiment: SPR; bivalent model, kd1
[5] = target: human mesothelin on the surface of Meso34-MSLN cells (human) (UniProt Q13421); experiment: flow cytometry on cells; Meso34 and Meso34-MSLN cells stained with a concentration range of N13 monomer (streptavidin-PE), N13 dimer (anti-6X His Tag-PE) or MORAb-009 (anti-human IgG Fc), 30 min at 4°C; EC50 by one binding site regression
[6] = target: T1, recombinant 302–359 fragment of human …; experiment: SPR; bivalent model, kd2
[7] = target: recombinant 302–359 fragment of human mesothelin (hMSLN) (human) (UniProt Q13421); experiment: SPR; Biacore T200; hMSLN 302–359 amine-coupled at about 700 RU on CM5; analytes 12.5 to 200 nM in HBS-EP, single cycle kinetics, 30 μL/min; bivalent model; apparent
[8] = target: human mesothelin on the surface of Meso34-MSLN cells (human) (UniProt Q13421)
[9] = target: T1, recombinant 302–359 fragment of human …; experiment: SPR; bivalent model, kd2
[10] = target: human mesothelin on the surface of Meso34-MSLN cells (human) (UniProt Q13421); experiment: flow cytometry on cells; Meso34-MSLN and NK92CD16h cells incubated with increasing concentrations of BiKEs, 30 min at 4°C; streptavidin-PE; one binding site regression
[11] = target: T1, recombinant 302–359 fragment of human …; experiment: SPR; bivalent model, kd1
[12] = target: T1, recombinant 302–359 fragment of human …; experiment: SPR
[13] = target: recombinant 302–359 fragment of human mesothelin (hMSLN) (human) (UniProt Q13421); experiment: SPR; Biacore T200; hMSLN 302–359 amine-coupled at about 700 RU on CM5; analytes 12.5 to 200 nM in HBS-EP, single cycle kinetics, 30 μL/min; Langmuir model

Sequence of human mesothelin on the surface of Meso34-MSLN cells (human) (Q13421 other isoform, or with tags, fused parts or gaps): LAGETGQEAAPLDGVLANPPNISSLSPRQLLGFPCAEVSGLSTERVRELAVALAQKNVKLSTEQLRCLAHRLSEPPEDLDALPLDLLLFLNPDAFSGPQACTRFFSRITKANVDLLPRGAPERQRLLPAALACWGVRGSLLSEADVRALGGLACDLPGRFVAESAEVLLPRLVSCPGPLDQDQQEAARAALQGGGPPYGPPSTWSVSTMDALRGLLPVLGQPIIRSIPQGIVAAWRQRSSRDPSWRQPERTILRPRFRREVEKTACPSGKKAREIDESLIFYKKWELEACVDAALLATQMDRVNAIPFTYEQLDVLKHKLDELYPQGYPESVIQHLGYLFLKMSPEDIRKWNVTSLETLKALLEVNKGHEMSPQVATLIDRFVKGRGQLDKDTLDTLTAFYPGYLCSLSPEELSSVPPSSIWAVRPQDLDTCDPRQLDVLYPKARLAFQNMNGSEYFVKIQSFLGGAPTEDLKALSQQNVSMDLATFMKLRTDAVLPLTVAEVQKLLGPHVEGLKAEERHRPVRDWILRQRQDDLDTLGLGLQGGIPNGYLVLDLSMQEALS

- koff [3]: 0.0647 s⁻¹
B2: N13 Affitin (monomer) (designed binder)
chain: MRGSHHHHHHGSATKVKFKVFGEEKEVDISKIKHVDRMNWRGLLYIRFSYDDNGKLGHGWVSEKDAPKELLEKLKLN
modifications: biotin on the AviTag

- koff [4]: 0.0573 s⁻¹
- EC50 [5]: 2.22 nM
- fold increase in affinity for cellular hMSLN against the N13 monomer [5]: 1000 fold
- koff [6]: 0.000767 s⁻¹
- Kd [7]: 0.57 nM
- fold reduction of the dissociation rate constant (kd) against the N13 monomer [7]: 84 fold
B3: N13 Affitin homodimer (two N13 Affitins linked by a 20-amino-acid HMA linker) (designed binder)
chain: MRGSHHHHHHGSATKVKFKVFGEEKEVDISKIKHVDRMNWRGLLYIRFSYDDNGKLGHGWVSEKDAPKELLEKLKPSGQAGAAASESLFVSNHAYGSGATKVKFKVFGEEKEVDISKIKHVDRMNWRGLLYIRFSYDDNGKLGHGWVSEKDAPKELLEKLKLGSGLNDIFEAQKIEWHE

- koff [3]: 0.214 s⁻¹
B4: N7 Affitin (monomer) (designed binder)
chain: MRGSHHHHHHGSATKVKFKYMGEEKEVDISKIKVVSRSVGPLGSFILFQYDDNGKMGRGFVSEKDAPKELLEKLKLN
modifications: biotin on the AviTag

- koff [9]: 0.000762 s⁻¹
- EC50 [10]: 7.45 nM
- koff [11]: 0.136 s⁻¹
- Kd [7]: 0.831 nM
B6: C21(N13)2 bispecific NK cell engager (anti-CD16 VHH C21 fused to a homodimer of N13 Affitin) (designed binder)
chain: MEVQLVESGGELVQAGGSLRLSCAASGLTFSSYNMGWFRRAPGKEREFVASITWSGRDTFYADSVKGRFTISRDNAKNTVYLQMSSLKPEDTAVYYCAANPWPVAAPRSGTYWGQGTQVTVSSPSGQAGAAASESLFVSNHAYGSATKVKFKVFGEEKEVDISKIKHVDRMNWRGLLYIRFSYDDNGKLGHGWVSEKDAPKELLEKLKPSGQAGAAASESLFVSNHAYGSGATKVKFKVFGEEKEVDISKIKHVDRMNWRGLLYIRFSYDDNGKLGHGWVSEKDAPKELLEKLKLNRGSHHHHHHGSGLNDIFEAQKIEWHE
modifications: biotin on the AviTag
- ED50 of NK92CD16h-mediated 51Cr cytotoxicity on Meso34-MSLN cells, effector/target ratio 10:1 [8]: 0.325 nM
- ED50 of NK92CD16h-mediated 51Cr cytotoxicity on Meso34-MSLN cells, effector/target ratio 20:1 [8]: 0.277 nM
- maximal NK92CD16h-mediated 51Cr cytotoxicity on Meso34-MSLN cells, effector/target ratio 10:1 [8]: 22.6%
- maximal NK92CD16h-mediated 51Cr cytotoxicity on Meso34-MSLN cells, effector/target ratio 20:1 [8]: 38.9%

- koff [12]: 0.0385 s⁻¹
- affinity for Meso34-hMSLN cells [10]: > 100 nM
- Kd [13]: 67.1 nM
B8: C21(N13)1 bispecific NK cell engager (anti-CD16 VHH C21 fused to one N13 Affitin) (designed binder)
chain: MEVQLVESGGELVQAGGSLRLSCAASGLTFSSYNMGWFRRAPGKEREFVASITWSGRDTFYADSVKGRFTISRDNAKNTVYLQMSSLKPEDTAVYYCAANPWPVAAPRSGTYWGQGTQVTVSSPSGQAGAAASESLFVSNHAYGSATKVKFKVFGEEKEVDISKIKHVDRMNWRGLLYIRFSYDDNGKLGHGWVSEKDAPKELLEKLKKLNRGSHHHHHHGSGLNDIFEAQKIEWHE
modifications: biotin on the AviTag
- ED50 of NK92CD16h-mediated 51Cr cytotoxicity on Meso34-MSLN cells, effector/target ratio 10:1 [8]: 5.62 nM
- ED50 of NK92CD16h-mediated 51Cr cytotoxicity on Meso34-MSLN cells, effector/target ratio 20:1 [8]: 3.11 nM
- maximal NK92CD16h-mediated 51Cr cytotoxicity on Meso34-MSLN cells, effector/target ratio 10:1 [8]: 19.2%
- maximal NK92CD16h-mediated 51Cr cytotoxicity on Meso34-MSLN cells, effector/target ratio 20:1 [8]: 26.1%

Further lines, the binder ahead of its results:

B1: VHH A1 (anti-hMSLN VHH) (VHH)
VHH: DVQLQESGGGLVHPGGSLRLSCAASGIDLSLYRMRWYRQAPGKERDLVALITDDGTSYYEDSVKGRFTITRDNPSNKVFLQMNSLKPEDTAVYYCNAETPLSPVNYWGQGTQVTVSS
- koff [1]: 0.804 s⁻¹
- Kd [2]: 15.6 nM

B5: N18 Affitin (monomer) (designed binder)
chain: MRGSHHHHHHGSATKVKFKLFGEEKEVDISKIKKVERRTFHMDKTIVFMYDDNGKSGYGWVSEKDAPKELLEKLKLN
modifications: biotin on the AviTag
- koff [3]: 0.073 s⁻¹

B7: N23 Affitin (monomer) (designed binder)
chain: MRGSHHHHHHGSATKVKFKLFGEEKEVDISKIKRVERRAIQAASYIAFAYDDNGKIGHGWVSEKDAPKELLEKLKLN
modifications: biotin on the AviTag
- koff [3]: 0.288 s⁻¹
